We go through two molecules from patent publication US20210363257A1 (Pieris, published 2021).

Experiment [1] has as its target T1, human PD-L1 expressed on cells (human, UniProt Q9NZQ7 19-290).
T1 construct: whole, on cells; also called Flp-In-CHO::huPDL-1; RKO cells
The experiment can be described thus: flow cytometry, RKO tumor cells (PD-L1-positive). As to the method: (§1) 5×10⁴ cells per well were incubated for 1 h in ice-cold PBS containing 5% fetal calf serum (PBS-FCS). A dilution series of the fusion proteins and control antibodies were added to the cells and incubated for 1 h on ice. Cells were washed twice with PBS and then incubated with a goat anti-hIgG Alexa647-labeled antibody for 30 min on ice. Cells were subsequently washed and analyzed using iQue Flow cytometer (Intellicyte Screener). Mean geometric fluorescent signals were plotted and fitted with Graphpad software using nonlinear regression (shared bottom, SLOPE=1).
For flow cytometric analysis, RKO cells were incubated with fusion proteins and detected using a fluorescently labeled anti-human IgG antibody as described in Example 6.
In general terms: Flow cytometry measures light scatter and fluorescence of single cells or particles in a stream.

The target of experiment [2] is T2, huPD-L1-His (human PD-L1 with a C-terminal polyhistidine tag) (human, UniProt Q9NZQ7 19-239).
T2 construct: Bought; also called biotinylated huPD-L1-His
Description: ELISA, huPD-L1-His coated, detection anti-human IgG Fc-HRP. Here is the method:
(§2) Recombinant huPD-L1-His or cyPD-L1-His (human or cynomolgus PD-L1 with a C-terminal polyhistidine tag, R&D Systems or Sino Biologics) at the concentration of 1 μg/mL in PBS was coated overnight on microtiter plates at 4° C. After washing with PBS-0.05% T (PBS supplemented with 0.05% (v/v) Tween 20), the plates were blocked with 2% BSA (w/v) in PBS-0.1% T (PBS supplemented with 0.1% (v/v) Tween 20) for 1 h at room temperature. […] Bound molecules under study were detected by incubation with 1:5000 diluted anti-human IgG Fc-HRP (Jackson Laboratory) in PBS-0.1% T-2% BSA. After an additional wash step, fluorogenic HRP substrate (QuantaBlu, Thermo) was added to each well and the fluorescence intensity was detected using a fluorescence microplate reader.
A general note: An ELISA detects its analyte on a solid surface through an enzyme-linked reagent.

Experiment [3] addresses cyCD137-Fc (cynomolgus CD137 C-terminally fused to Fc) (cynomolgus). The experiment can be described thus: ELISA, cyCD137-Fc coated, detection anti-NGAL-HRP. Here is the method: as §2
The same ELISA setup was also employed to determine the binding potency of fusion proteins to CD137, where huCD137-His (human CD137 with C-terminal polyhistidine tag, R&D Systems) or cyCD137-Fc (cynomolgus CD137 C-terminally fused to Fc) was instead coated on a microtiter plate. The testing agents were similarly titrated and bound agents were detected via anti-NGAL-HRP.

Experiment [4] concerns the target T2, huPD-L1-His (human PD-L1 with a …). The experiment can be described thus: SPR (Biacore), binder captured by anti-human IgG Fc, huPD-L1-His in solution, 25 C, 1:1 model. Here is the method: (§3) The binding kinetics and affinity of exemplary fusion proteins to huPD-L1-His or huCD137-His (human PD-L1 or human CD137 with a C-terminal polyhistidine tag, R&D Systems) were determined by surface plasmon resonance (SPR) using a Biacore 8K or a Biacore T200 (GE Healthcare).
(§4) The anti-human IgG Fc antibody (GE Healthcare) was immobilized on a CM5 sensor chip using standard amine chemistry: the carboxyl groups on the chip were activated using 1-ethyl-3-(3-dimethylaminopropyl)-carbodiimide (EDC) and N-hydroxysuccinimide (NHS). Subsequently, anti-human IgG Fc antibody solution (GE Healthcare) at a concentration of 25 μg/mL in 10 mM sodium acetate (pH 5.0) was applied at a flow rate of 5 μL/min until an immobilization level of 6000-10000 resonance units (RU) was achieved. Residual non-reacted NHS-esters were blocked by passing a solution of 1M ethanolamine across the surface. The reference channel was treated in an analogous manner. […] After each capture step, the needle was washed.
(§5) Double referencing was used and the 1:1 binding model was used to fit the raw data.

The target in experiment [5] is T3, biotinylated huCD137-Fc (human CD137 Fc fusion) (human, UniProt Q07011 24-186, biotinylated).
T3 construct: Bought; also called huCD137-Fc-bio
Description: competitive ELISA, antibody SEQ ID NOs: 28 and 29 coated (competitor), 1 nM huCD137-Fc-bio tracer, binder titrated. Here is the method:
The plates were washed five times after each incubation step with 100 μL PBS-0.05% T (PBS supplemented with 0.05% (v/v) Tween 20). The plates were blocked with 2% BSA (w/v) in PBS-0.1% T (PBS supplemented with 0.1% (v/v) Tween 20) for 1 h at room temperature and subsequently washed again. […] The mixtures of testing molecules and the tracer were added to the plates and incubated for 20 min at room temperature following by five washing steps with 100 μL PBS-0.05% T. Subsequently, a 1:5000 dilution of ExtrAvidin-HRP (Sigma-Aldrich) in PBS-0.1% T-2% BSA was added to the wells and incubated for 1 h. After an additional wash step, fluorogenic HRP substrate (QuantaBlu, Thermo) was added to each well, and the fluorescence intensity was detected using a fluorescence microplate reader.
Competition data for an exemplary experiment are shown in FIG. 14, where the x-axis represents testing molecule concentration and the y-axis represents the measured trace molecule concentration. The data were fit to a 1:1 sigmoidal curve, where the IC₅₀ value and the maximum signal were free parameters, and the slope was fixed to unity.

Experiment [6] deals with T4, huCD137-His (human CD137 with a C-terminal polyhistidine tag) (human, UniProt Q07011 24-186).
T4 construct: Bought; also called huCD137-His-Bio
Description: SPR (Biacore), binder captured by anti-human IgG Fc, huCD137-His in solution, 25 C, 1:1 model. Here is the method: as §3, §4, §5
On the technique in general: In SPR one partner is held on a chip, and binding of the other changes the refractive index at the surface.

Experiment [7] concerns the target T4, huCD137-His (human CD137 with a …). The experiment can be described thus: dual-binding ELISA, huCD137-His coated, binder titrated, detection with biotinylated huPD-L1-His.
Experiment [8] concerns the target T5, cynomolgus CD137 expressed on cells (cynomolgus, UniProt A9YYE7 24-254).
T5 construct: also called Flp-In-CHO::cynoCD137
The experiment can be described thus: flow cytometry, Flp-In-CHO::cynoCD137 cells. As to the method:
(§6) The geometric means of the fluorescence intensity were used to calculate EC₅₀ values using nonlinear regression (shared bottom, SLOPE=1).
as §1

The target of experiment [9] is T1, human PD-L1 expressed on cells. Description: flow cytometry, Flp-In-CHO::huPDL-1 cells. As to the method: as §6, §1
Experiment [10] addresses human CD137 expressed on cells (human, UniProt Q07011 24-255). Description: cell-based or functional assay.

B1: fusion protein SEQ ID NOs: 90 and 87 (bispecific antibody, human IgG4 S228P, kappa, F234A L235A)
heavy: not shown
light: EIVLTQSPDTLSVTPKEKVTLTCRASQSIGTNIHWFQQKPGQSPKLLIKYASESISGVPSRFSGSGSGTDFTLTINSVEAEDAATYYCQQSNSWPYTFGQGTKLEIKRTVAAPSVFIFPPSDEQLKSGTASVVCLLNNFYPREAKVQWKVDNALQSGNSQESVTEQDSKDSTYSLSSTLTLSKADYEKHKVYACEVTHQGLSSPVTKSFNRGEC
notes: Bivalent to CD137
For orientation: EC50 means the concentration needed to bring the measured effect to its halfway point. Lower therefore signals greater potency. By Kd is commonly meant the equilibrium constant for the complex coming apart. A higher Kd goes with a looser complex. As usually defined, the koff is the rate constant with which the complex falls apart. One may read the kon as the second-order rate constant of association. High values mean fast association, low ones slow association. The term IC50 denotes the point on the concentration scale where inhibition reaches its midpoint. Take B1: the EC50 in [1] was 0.51 nM; in [2], 0.15 nM; in experiment [3], 5.9 nM; in experiment [7], 2.9 nM; in experiment [8], 51.4 nM; in experiment [9], 3.64 nM. Further, the Kd stood at 0.592 nM in experiment [4] and 6.48 nM in experiment [6]. Besides, the results for the koff in experiment [4] and in experiment [6] were 0.000769 s⁻¹ and 0.000255 s⁻¹, respectively. Besides, the kon in experiment [4] amounted to 1.3e+06 M⁻¹ s⁻¹; in experiment [6] it was 39300 M⁻¹ s⁻¹. Also, the IC50 in experiment [5] was 1.1 nM. Also, the “EC50 [nM] With RKO cells (CD137 Bioassay, NFκB-luc2/CD137 Jurkat luminescence)” value in [10] is 0.0809 nM.

B2: fusion protein SEQ ID NOs: 86 and 91 (bispecific antibody, human IgG4 S228P, kappa, F234A L235A)
heavy: not shown
light: EIVLTQSPDTLSVTPKEKVTLTCRASQSIGTNIHWFQQKPGQSPKLLIKYASESISGVPSRFSGSGSGTDFTLTINSVEAEDAATYYCQQSNSWPYTFGQGTKLEIKRTVAAPSVFIFPPSDEQLKSGTASVVCLLNNFYPREAKVQWKVDNALQSGNSQESVTEQDSKDSTYSLSSTLTLSKADYEKHKVYACEVTHQGLSSPVTKSFNRGECGGGGSGGGGSGGGGSQDSTSDLIPAPPLSKVPLQQNFQDNQFHGKWYVVGQAGNIRLREDKDPIKMMATIYELKEDKSYDVTMVKFDDKKCMYDIWTFVPGSQPGEFTLGKIKSFPGHTSSLVRVVSTNYNQHAMVFFKFVFQNREEFYITLYGRTKELTSELKENFIRFSKSLGLPENHIVFPVPIDQCIDG
notes: Antibody-lipocalin mutein fusion, IgG4 S228P backbone; Bivalent to CD137
Take B2: the 50% effective concentration (EC50) in experiment [1] was found to be 0.45 nM; in experiment [2], 0.23 nM; in experiment [3], 13 nM; in [7], 3.3 nM; in experiment [8] it was 39.1 nM; in [9] it was 1.43 nM. Moreover, the Kd amounted to 0.568 nM in experiment [4] and 5.11 nM in experiment [6]. For the same molecule, the koff in experiment [4] turned out to be 0.000748 s⁻¹; in [6], 0.000175 s⁻¹. The figures for the kon in [4] and in experiment [6] were 1.32e+06 M⁻¹ s⁻¹ and 34200 M⁻¹ s⁻¹, respectively. For the same molecule, in [5], the IC50 was determined as 0.99 nM. For the same molecule, the “EC50 [nM] With RKO cells (CD137 Bioassay, NFκB-luc2/CD137 Jurkat luminescence)” value in experiment [10] was found to be 0.0889 nM.
